Assay results taken from PMC5805342.

Each substance was assayed against Plasminogen (human).

Substance | KM for plasminogen activation (indirect chromogenic assay with S-2251; plasminogen 24-0 μM, 1 nM muPA, 37°C) [µM] | kcat for plasminogen activation (indirect chromogenic assay with S-2251; plasminogen 24-0 μM, 1 nM muPA, 37°C) [s⁻¹]
Full-length muPA S74A (enzyme) | 22 | 
Full-length muPA Y149A (enzyme) | 12 | 0.06
Full-length muPA E73A (enzyme) | 24.6 | 
Full-length muPA Y76A (enzyme) | 5 | 

The next lines start with the values.

KM for plasminogen activation (indirect chromogenic assay with S-2251; plasminogen 24-0 μM, 1 nM muPA, 37°C) [µM] | kcat for plasminogen activation (indirect chromogenic assay with S-2251; plasminogen 24-0 μM, 1 nM muPA, 37°C) [s⁻¹] | Substance
9.8 |  | Full-length murine urokinase-type plasminogen activator (muPA) (from UniProt P06869 21-433) (enzyme)
3.1 |  | Full-length muPA K72A (enzyme)
3.9 |  | Full-length muPA P78A (enzyme)
5.1 |  | Full-length muPA N77A (enzyme)
